Source: publication PMC2760979 (Cancer research, 2009)

Molecular target: GST-p65(1-306) (UniProt Q04206 1-306)
Assay: pull-down

Sequence of GST-p65(1-306) (Q04206 1-306): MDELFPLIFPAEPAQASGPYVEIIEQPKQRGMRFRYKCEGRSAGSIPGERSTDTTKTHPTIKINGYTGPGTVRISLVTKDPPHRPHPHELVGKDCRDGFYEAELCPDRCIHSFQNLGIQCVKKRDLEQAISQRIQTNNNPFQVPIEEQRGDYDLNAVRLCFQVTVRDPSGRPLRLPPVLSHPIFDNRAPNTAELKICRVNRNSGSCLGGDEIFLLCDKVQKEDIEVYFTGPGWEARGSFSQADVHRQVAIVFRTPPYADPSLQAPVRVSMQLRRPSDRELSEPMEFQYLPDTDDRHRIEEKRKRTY

binding result: binds
Binder: GGSSLSY [GGSSLSY peptide]
